Publication PMC10160606, “Identification of GA20ox2 as a target of ATHB2 and TCP13 during shade response”

Biological target: T1, ATHB2 (UniProt Q05466 1-284)
T1 sequence: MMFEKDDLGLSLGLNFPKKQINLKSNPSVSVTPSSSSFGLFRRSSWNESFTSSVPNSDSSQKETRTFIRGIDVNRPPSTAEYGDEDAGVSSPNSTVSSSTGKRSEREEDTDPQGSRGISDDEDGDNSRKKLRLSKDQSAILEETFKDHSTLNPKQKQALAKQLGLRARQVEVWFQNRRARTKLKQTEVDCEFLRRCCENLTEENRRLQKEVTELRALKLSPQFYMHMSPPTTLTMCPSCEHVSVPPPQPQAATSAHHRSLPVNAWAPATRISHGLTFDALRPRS
Experiment: EMSA; 100x unlabeled identical oligonucleotide used as competitor in a separate lane; LightShift Chemiluminescent EMSA Kit (Thermo Fisher) per manufacturer; native gel; buffer, salt, pH and temperature not stated
Conditions: protein: recombinant; tags: 6xHis (pET-28a); chain copies: 2; label: 3' biotin on both strands; blunt

B1: GA20ox2 promoter ABS1 31-mer (dsDNA)
DNA 1: CAATTTGAAGACAATGTTAGGAATTAGTTAC
DNA 2: GTAACTAATTCCTAACATTGTCTTCAAATTG
binding result: binds
